Measured values reported in the nanobody polyreactivity screen of Harvey et al. (2022).

Experiment: yeast display, Sf9 membrane polyspecificity reagent, FACS + sequencing; frameworks hold sequencing errors
How it was run: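 Galactose-induced (36–48 hours) yeast carrying a synthetic nanobody display library were exposed to 10% biotinylated, detergent-solubilized Sf9 membrane reagent at 4 °C for 1 hour. FACS followed streptavidin microbead enrichment, using low and high (top ~1%) gates for expression (anti-HA) and reagent binding (streptavidin). Colony PCR, MiSeq 2 × 250 sequencing and CDR-length filtering followed. Labels for polyreactivity reflect the gate of origin.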

Row | Sequence | polyreactivity (PSR sort gate)
1 | QVQLVESGGGLVQAGGSLRLSCAASGFIFIFYAMGWYRQAPGKERELVAGISWSSSSTYYADSVKGRFTISRDNAKNTVYLLMNSLKPEDTAVYYFNAKHLPRHRDYWGQGTQVTVSS | low polyreactivity
2 | QVQLVESGGGLVQAGGSLRLSCAASGFIFIRYAMGWYRQAPGKERELVAAINGGGSSTYYADSVKGRFTISRDNAKNTVYLQMNSLKPEDTAVYYCAADTDSWWYYLYYGDGFDYWGQGTQVTVSS | high polyreactivity
3 | QVQLVESGGGLVQAGGSLRLSCAASGFIFIVYAMGWYRQAPGKERELVASITYSGGGTYYADSVKGRFTISRDNAKNTVYLQKNSLKPEDTAVYYCNADVSWSYSVYREYGMDYWGQGTQVTVSS | low polyreactivity
4 | QVQLVESGGGLVQAGGSLRLSCAASGFIFKDNAMGWYRQAPGKERELVAVSSGTGVRTNYADSVKGRFTISRDNAKNTVYLQMNSLKPEDSAVYYCIADTYRRAQLRFNSWGQGTQVTVSS | low polyreactivity
5 | QVQLVESGGGLVQAGGSLRLSCAASGFIFKDYAMRWYRHSPGKERELVAAITSGVSTNYADSVKGRFTISRDNAKNTVYLQMNSLKPEDTAVSYCNAKARLAGWWLFRLEYWGQGTQVTVSS | low polyreactivity
6 | QVQLVESGGGLVQAGGSLRLSCAASGFIFKFNAMGWYRQAPGKERELVAAINYSAGSTYYADSVKGRFTISRDNAKNTVYLKMNSLKPEDTAVYYCNALYTYGWYSDDYWGQGTQVTVSS | high polyreactivity
7 | QVQLVESGGGLVQAGGSLRLSCAASGFIFKIYAMGWYRQAPGKERELVATISRGGSTYYADSVKGRFTISRDNAKNTVYLQMISLNPVDTAVYYCADVFYYPPFLYNYWGQGTQVTVSS | high polyreactivity
8 | QVQLVESGGGLVQAGGSLRLSCAASGFIFKKYAMGWYRQAPGKERELVAAISGSSTRTYYADSVKGRFTISRDNAKNTVYLQMNSLKPEDTAVYYCAAYYGVGFDYWGQGTQVTVSS | high polyreactivity
9 | QVQLVESGGGLVQAGGSLRLSCAASGFIFKPYDMGWYRQARGKEREFVAAITYSGGRTYYADSVKGRFTISRDNAKNTVYLHMNSLKPEDTAVYYCAADQYWWYWYDYWGQGTQVTVSS | high polyreactivity
10 | QVQLVESGGGLVQAGGSLRLSCAASGFIFKPYTMAWYRQAPGKERELVATITFSGGSTYYADSVKGRFTISRDNAKNTVYLQMNSLKPEDTAVYYCAAPRYYRGYAIYDYWGQGTQVTVSS | low polyreactivity
11 | QVQLVESGGGLVQAGGSLRLSCAASGFIFKQNARGWYRQAPGKERELVAAISWTGGSTYYADSVQGRFTISRDNAKNTVYLQMNSLKPEDTAVFYCAARKYKSTGDRRGTMDYWGQGTQVTVSS | high polyreactivity
12 | QVQLVESGGGLVQAGGSLRLSCAASGFIFKRYAMGWYRQAPGKERELVAAITLSGGDTYYADSVKGRFTISRDNAKNTVYLQMNSLKPEDTAVYYCNAPYIGENYYWGQGTQVTVSS | high polyreactivity
13 | QVQLVESGGGLVQAGGSLRLSCAASGFIFKRYTMGWYRQAPGKERELVAAISANGGRTYYADSVKGRFTISRDNAKNTVYLQMNSLKPEDTAVYYCAATRWDYTLYGYDYWGQGTQVTVSS | high polyreactivity
14 | QVQLVESGGGLVQAGGSLRLSCAASGFIFKSYAMGWYRQAPGKERELVAAISGRGGSTYYADSVKGRFTISRDNAKNTVYLQMNSLKPEDPAVYYCNVGPSTYYQYDYWGQGTQVTVSS | high polyreactivity
15 | QVQLVESGGGLVQAGGSLRLSCAASGFIFKSYAMGWYRQAPGKERELVAAISGRGGSTYYADSVKGRFTISRDNAKNTVYLQMNSLKPEDTAVYYCNVVPSTYYQYDYWGQGTQVTVSS | high polyreactivity
16 | QVQLVESGGGLVQAGGSLRLSCAASGFIFKVNAMGCYRQAPGKERELVAAISRRGGTTYYADSVKGRFTISRDNAKNTVYFQLNSLKPEDTAVYYCYRARSYGVTDKVAILADDYWGQGTQVTVSS | high polyreactivity
17 | QVQLVESGGGLVQAGGSLRLSCAASGFIFKWNAMGWYRQAPGKERELVAAITSGGGTYYADSVKGRFTISRDNAKNTVYLQMNSLKPEDTAVYYCAGYGYWGQGTQVTVSS | high polyreactivity
18 | QVQLVESGGGLVQAGGSLRLSCAASGFIFKYNAMGWYRQAPGKERELVAAISYRGTRTYYADSVKGRFTISRDNAKNTVYLQMNSLKPEDTAVYYCNAGLTYNHHPYDYWGQGTQVTVSS | high polyreactivity
19 | QVQLVESGGGLVQAGGSLRLSCAASGFIFLGNAMGWYRQAPGKERELVAAISSGGSTYSDSVKGRFTISRDNAKHTVYLQMNSLKPEDTAVYYCAADSFIPPYDHWGQGTQVTVSS | low polyreactivity
20 | QVQLVESGGGLVQAGGSLRLSCAASGFIFLGYAMGWYRQAPGNERELVAAISESSGTTSYADSVKGRFTISRDNAKNTVYLQMNSLKPEDNAVYYCAADSIGNYLLYDYWGQCTQVTVSS | low polyreactivity
21 | QVQLVESGGGLVQAGGSLRLSCAASGFIFLLNAMGWYRQAPGKEREFVAAISWGGGSTYYADSVKGRFTISRDNAKNTVYLQMNSLKPEDTAVYYCAAKPGKTPLTGHRGPYDTGYGYWGQGTQVTVSS | low polyreactivity
22 | QVQLVESGGGLVQAGGSLRLSCAASGFIFLQYPMGWYRQAPGKERDLVAAITSGGGTNYADSVKGRFTISRDNAKNTVYLQMNSLKPEDTAVYYCAARTWPWVLGATQDDYWGQGTQVTVSS | low polyreactivity

Row | Sequence | polyreactivity (PSR sort gate)
23 | QVQLVESGGGLVQAGGSLRLSCAASGFIFLRYGMGWYRQAPGKARELVATISWSGDSTYADSVKGRFTISRDNAKNTLYLQMNSLKPEDTAVYYCATSGDWWGFRYDYWGQGTQVTVSS | low polyreactivity
24 | QVQLVESGGGLVQAGGSLRLSCAASGFIFLTNAMGWYRQAPWKERELVAAITGGGITYYADSVKGRFTISLDNAKNTVYLQMNSLNPEDTAVYYCATDSLIFTIFDYWGQGSQVTVSS | low polyreactivity
25 | QVQLVESGGGLVQAGGSLRLSCAASGFIFLVNAMGWYSGAPGKERELVAAISKSTGGTYYADSVKGRFTISRDNAKNTVYLQMNSLKPEDTAVYYCAADEVYPVQRDMDYWGQGTQVTVSS | low polyreactivity
26 | QVQLVESGGGLVQAGGSLRLSCAASGFIFLYNAMGWDRQARGKERELVAAITSSGGTTYYADSVKGRFTISRDNAKNTVYLQINSLKPEDTAVYYCAARYTGRNGGSTTPEYDYWGQGTQVTVSS | low polyreactivity
27 | QVQLVESGGGLVQAGGSLRLSCAASGFIFLYYAMGWYRQAPGKERELVAAISSSGGSTYYADSVKGRFTISRDNAKNTVYLQMNSLKPEDTAVYYCAARRKGKARVPQYDYWGQGTQVTVSS | high polyreactivity
28 | QVQLVESGGGLVQAGGSLRLSCAASGFIFNHYRMGWYRPAPGKEREFVAAISWSGGSTYYADSVKGRFTISRDNAKNTVYLQMNSLKPEDTAVYYCAASYNGLWHGDYDYWGQGTQVTVSS | low polyreactivity
29 | QVQLVESGGGLVQAGGSLRLSCAASGFIFNIYGMGWYRQAPGKERELVAAISRGGSTYYADSVKGRFTISRDNAKNTGYLQMNSLTPEDTAVYYCAAVGYTLEYEYWGQGTQVTVSS | low polyreactivity
30 | QVQLVESGGGLVQAGGSLRLSCAASGFIFNLYAMGWYRQAPGKERELVAAISSGGGTSYADSVKGRFTISRDNAKNTVYLQMNSLKPEDTAVYYCAAGYKRRYYWKGYTRYDYWGQGTQVTVSS | high polyreactivity
31 | QVQLVESGGGLVQAGGSLRLSCAASGFIFNRYAMGWYRQAPGKERELVADITGGSTYYADSVKGRFTISRDNAKNTVYLQMNSLKPEDTAVYYCAADVLRISTQLFRGPGFDSWGQGTQVTVSS | low polyreactivity
32 | QVQLVESGGGLVQAGGSLRLSCAASGFIFNVYAMGWYRQAPGKERELVAAISQRGGRTYYADSVKGRFTISRDNAKNTVYLQMNSLKPEDTAVYYCKLFYPKHGYWGQGTQVTVSS | high polyreactivity
33 | QVQLVESGGGLVQAGGSLRLSCAASGFIFNYYLGWYRQAPGKEREWVAAISQSGDSTYYADSVKGRFTISRDNAKNTVYLQMNSQKPEDTAVYYCAAETSPDYRGVTYYYWGQGTQVTLSS | high polyreactivity
34 | QVQLVESGGGLVQAGGSLRLSCAASGFIFPAYAMGWYRPAPGKERELVAAISKSGGRTYYADSVKGRFTISRDNAKNTVYIQMKSLKPEYTAVYYCDARMYNYDTSSSFDYWGQGTQVTVSS | high polyreactivity
35 | QVQLVESGGGLVQAGGSLRLSCAASGFIFPIYAMGWYRQAPGKERELVAAITSNGASTYYADSVKGRFTISRDNAKNTVYLQMNSLKPEDTAVYYCARDPSIRALEHDYWGQGTKVTVSS | high polyreactivity
36 | QVQLVESGGGLVQAGGSLRLSCAASGFIFPNNAMGWYRQAPGKERELVARISYGGGDTHYADSVKGRFTISRDTAKNTVYLQMNSLKPEDTAVYYCAVKDGQDDYWGQGTQVTVSS | low polyreactivity
37 | QVQLVESGGGLVQAGGSLRLSCAASGFIFPRNVMGWYRQAPGKERELVAAISRSGGSTYYADSVKGRITISRDNAKNTVYLQMNSLKPEDTAVYYCDKRTFYNGEYWGQGTQVTVSS | high polyreactivity
38 | QVQLVESGGGLVQAGGSLRLSCAASGFIFPRYAMGWYRQAPGKERELVAAISYTGGSTYYADSVKGRFTISRDNAKNTVSLQMNSLKPEDTAVYYCYAYFLSQYQRGYRDDYWGQGTQVTVSS | high polyreactivity
39 | QVQLVESGGGLVQAGGSLRLSCAASGFIFPTNTMGWYRQAPGKEREFVARITRSGTNTYYADSVKGRFTISRDNAKNTVYLQMNSLKAEDTAVYYCARRGTSSYRRYWLDSASNMDYWGQGTQVTVSS | high polyreactivity
40 | QVQLVESGGGLVQAGGSLRLSCAASGFIFPTYAMGWYRQAPGKERELVAAISYRGGITSYADSVKGRFTISRDNAKNTVYLQMNSLKPEDTAVYYCAARGAWGYEYWGQGTQVTVSS | low polyreactivity
41 | QVQLVESGGGLVQAGGSLRLSCAASGFIFPVNAMGWSRQAPGKERELVAGITSSGGSTYYADSVKGRFTISRDNAKNTVYLQMNSRKPEDTAVYYCNAYIDALPVSYHFDYWGQGTQLTVSS | low polyreactivity
42 | QVQLVESGGGLVQAGGSLRLSCAASGFIFPVYAMGWYRQAPGKERELVAAITDSGDSTYYADSVKGRFTISRDNAKNTVYLQMNSLKPEDTAVYYCAAQVQYPRWYRSGKYDYWGQGTQVTVSS | low polyreactivity
43 | QVQLVESGGGLVQAGGSLRLSCAASGFIFPWYAMGWYRQAPGKERELVAAISWSGGSTYYADSVKWRFTISRDNAKNTVYLQMNSLKPEDTAVYYCNDLYGRPGYDYWGQGTQVTVSS | low polyreactivity
